Source: PMC4666417, “Specific Interaction between eEF1A and HIV RT Is Critical for HIV-1 Reverse Transcription and a Potential Anti-HIV Target” (PLoS Pathogens, 2015)

Experiments:
[1] = target: HIV-1 Gag, 6xHis-tagged, purified (HIV-1); assay: BLI; biotinylated eEF1 subunit (eEF1A1, eEF1B, eEF1D or eEF1G) immobilised on streptavidin biosensor; RT subunits, RT heterodimer, Gag or RTp66 mutants as analytes at 90, 30 and 10 nM (mutants at 90 nM); kinetic buffer 1 mM phosphate, 15 mM NaCl, 0.002% Tween-20, 0.1 mg/ml gelatine, 1000 rpm, OctetRed; conditions: both partners purified
[2] = target: T1, HIV-1 RT p66, 6xHis-tagged, purified (gift) (HIV-1, UniProt P04585 588-1147); assay: as above; conditions: both partners purified
T1 construct: source: E. coli, purified; gift

B1: eEF1A1 (eukaryotic elongation factor 1 subunit A1), MYC/DDK-tagged (natural protein, human, UniProt P68104 1-462, looked up)
chain: MGKEKTHINIVVIGHVDSGKSTTTGHLIYKCGGIDKRTIEKFEKEAAEMGKGSFKYAWVLDKLKAERERGITIDISLWKFETSKYYVTIIDAPGHRDFIKNMITGTSQADCAVLIVAAGVGEFEAGISKNGQTREHALLAYTLGVKQLIVGVNKMDSTEPPYSQKRYEEIVKEVSTYIKKIGYNPDTVAFVPISGWNGDNMLEPSANMPWFKGWKVTRKDGNASGTTLLEALDCILPPTRPTDKPLRLPLQDVYKIGGIGTVPVGRVETGVLKPGMVVTFAPVNVTTEVKSVEMHHEALSEALPGDNVGFNVKNVSVKDVRRGNVAGDSKNDPPMEAAGFTAQVIILNHPGQISAGYAPVLDCHTAHIACKFAELKEKIDRRSGKKLEDGPKFLKSGDAAIVDMVPGKPMCVESFSDYPPLGRFAVRDMRQTVAVGVIKAVDKKAAGAGKVTKSAQKAQKAK
modifications: biotinylated with EZ-Link Sulfo-NHS-Biotin where immobilised on the biosensor
notes: human eEF1A1, full-length; Used as analyte (a1, a2, a5) and, biotinylated, as immobilised ligand (a3); also called MYC/DDK-eEF1A1; purified eEF1A; source: HEK293 cells, bought: OriGene; not shown: MYC, C-terminal, kept; DDK, C-terminal, kept
Kd [1]: 21.5 ± 11.1 nM | koff [1]: 0.00188 s⁻¹ | kon [1]: 87500 M⁻¹ s⁻¹ | Kd [2]: 3.19 ± 1.08 nM | koff [2]: 0.000222 s⁻¹ | kon [2]: 69500 M⁻¹ s⁻¹
